# Results published in patent US20080193973A1, “Bacillus Subtilis Strain and its Use in Preparing Pharmaceuticals for Treating Thrombosis” (CHENGDU DI'AO JIUHONG PHARMACEUTICAL, priority 2005, published 2008).
# Marks after values point to notes of the source that are not given here.
# Columns and labels:
# [1] = tested on: carotid artery thrombosis in rats; test: carotid artery thrombosis test in rats (direct current stimulation, thrombus formation time); assay type: in vivo, SD rats
# Method: Experimental Apparatus: Experimental Intracorporeal Thrombosis Surveyor BT87-3, developed by the cardiovascular research department of Baotou Medical University of China.
# The carotid artery of test rats were separated 1 hour after the last intragastric administration or 15 minutes after intravenous injection according to the method prescribed in existing literature. Being stimulated continually with direct current (2 mA) for 7 minutes, the injuries of endarterium of carotid artery formed thrombosis gradually in test rats. The experimental apparatus would give an automatic alarm and record the time of thrombus formation when the blood vessels were blocked.
# [2] = weight and overt toxicity of test rats during 7 days of administration
# Method: Experimental Animal: 84 male SD rats weighing 250 to 320 g, purchased from the Animal Center of Henan Medical University of China.
# Eighty-four male SD rats were randomly assigned to seven experimental groups (12 rats each group) according to their body weight. The freeze-dried powder of nattokinase and positive drug aspirin were given to test groups and the control group was administered with 5% NaHCO3, by intragastric administration according to the dosage of 0.5 ml/100 g each day for 7 continuous days. The positive drug staphylokinase was given at the 7th day by intravenous injection.
# mice = test: acute toxicity test by intragastric administration in mice; assay type: in vivo
# [3] = preliminary test of activity of nattokinase prepared by 5% NaHCO3 at room temperature; assay type: physicochemical; settings: prepared by 5% NaHCO3, room temperature for 4 days
# Text: Basis of Preparation: It has been reported that the nattokinase-like drugs are stable at pH values from 6.0 to 12.0 and unstable when to the PH value is below 5.0. Generally, the pH values of digestive tract are ranged from 0.9 to 1.5 in stomach, 6.0 to 6.8 in small intestine and 6.5 to 7.5 in colon. Therefore, the direct intragastric administration of drug containing nattokinase prepared with common solution adjuvant is unstable and easy to breakdown.
# [4] = enzyme (nattokinase) activity of fermentation broth or dried crude product; assay type: biochemical
# Text: Although many kinds of fermentation techniques have been reported in existing literatures related to nattokinase from Bacillus subtilis, but the majority of the publicized strains have lower enzyme producing ability. On the other hand, other literatures describes some fermentation products from Bacillus subtilis that have higher enzyme producing ability, but it is difficult to evaluate the abilities of these publicized enzymes for the uncertainties of measuring conditions. The strain of Bacillus subtilis of the invention was fermented under the condition of temperature 30 to 40 degree C. and with the speed of 180 to 220 rpm for shaking bed, and the peak of enzyme production was obtained next day with enzyme activity of 1600 IU/ml and could be increased to 1697 IU/ml under optimized conditions. The enzyme activity of dried crude product could reach to 5000-10000 IU/g in solid fermentation of 10 kg supplies. […] Therefore, it has a very high industrial application value. So we think that the strain of Bacillus subtilis (No. Diao 1502) is a newly developed, different one in comparison with any Bacillus subtilis producing nattokinase reported in existing literatures.
# [5] = temperature below 56 degree C. for 30 10 minutes; cited from earlier work
# [6] = in vivo, po; cited from earlier work
molecule,measurement,setting,value
CC(=O)Oc1ccccc1C(=O)O [Aspirin],"Thrombus formation time, mean value","[1]; aspirin 40 mg/kg/day intragastric for 7 days, 1 hour after last administration",1379** second
same,Weight of test rats after 7 days of administration,[2]; aspirin 40 mg/kg/day intragastric,316 ± 20
same,Weight of test rats before administration,[2]; aspirin group (40 mg/kg/day intragastric),296 ± 15
"nattokinase of the invention: fibrinolysin produced by Bacillus subtilis Diao 1502; crude drug, luteous water-soluble powder, batch No. 20040617 (protein, UniProt P35835 107-381, looked up) Subtilisin NAT: AQSVPYGISQIKAPALHSQGYTGSNVKVAVIDSGIDSSHPDLNVRGGASFVPSETNPYQDGSSHGTHVAGTIAALNNSIGVLGVAPSASLYAVKVLDSTGSGQYSWIINGIEWAISNNMDVINMSLGGPTGSTALKTVVDKAVSSGIVVAAAAGNEGSSGSTSTVGYPAKYPSTIAVGAVNSSNQRASFSSVGSELDVMAPGVSIQSTLPGGTYGAYNGTSMATPHVAGAAALILSKHPTWTNAQVRDRLESTATYLGNSFYYGKGLINVQAAAQ",LD50,mice,higher than 6.0 g/kg
same,Carotid artery thrombosis time compared with positive Aspirin (in words),[1]; groups of different dosages,no significant difference
same,"Thrombus formation time, mean value","[1]; high dosage 100 mg/kg in 5% NaHCO3, intragastric for 7 days",1309** second
same,Effect on carotid artery thrombosis time compared with negative control (in words),[1]; listed as NK prepared by 5% NaHCO3,apparent antithrombotic effects
same,Effect on carotid artery thrombosis time compared with negative control (in words),[1]; listed as freeze dried powder of nattokinase,prolonged significantly
same,"Thrombus formation time, mean value","[1]; low dosage 4 mg/kg in 5% NaHCO3, intragastric for 7 days",1237* second
same,"Thrombus formation time, mean value","[1]; middle dosage 20 mg/kg in 5% NaHCO3, intragastric for 7 days",1287* second
same,Activity after storage (in words),[3],no decrease in activity
same,Enzyme activity of fermentation broth,[4]; after optimization of fermentation condition,1697 IU/ml
same,Enzyme activity of fermentation broth,"[4]; liquid fermentation, before optimization",1600 IU/ml
same,Enzyme activity of dried crude product,"[4]; solid fermentation of 10 kg class, after drying",5000-10000 IU/g
same,Activity after incubation (in words),[5],basically unchanged
same,Toxicity in rats (in words),"[2]; 7-day's intragastric administration, prepared with 5% NaHCO3",no apparent toxicity
"Nattokinase (NK): serine protease extracted from the traditional Japanese food Natto, 275 amino acids (background literature) (protein, UniProt P35835 107-381, looked up) Subtilisin NAT: AQSVPYGISQIKAPALHSQGYTGSNVKVAVIDSGIDSSHPDLNVRGGASFVPSETNPYQDGSSHGTHVAGTIAALNNSIGVLGVAPSASLYAVKVLDSTGSGQYSWIINGIEWAISNNMDVINMSLGGPTGSTALKTVVDKAVSSGIVVAAAAGNEGSSGSTSTVGYPAKYPSTIAVGAVNSSNQRASFSSVGSELDVMAPGVSIQSTLPGGTYGAYNGTSMATPHVAGAAALILSKHPTWTNAQVRDRLESTATYLGNSFYYGKGLINVQAAAQ",Time of peak value of fibrinolytic activity after taking the medicine,[6],4 h
same,Time till which certain activity was maintained,[6],8 h
